# Reference: paper PMC2651784
# Positions count from the first letter of the chain named. Where two headings read alike, the source gives them in different places.
# B1: tor-RE 25-bp probe (dsDNA)
# DNA 1: CGTTCCTTGCTCAATGAATTTTTCG
# DNA 2: CGAAAAATTCATTGAGCAAGGAACG
# B2: HSE competitor (dsDNA)
# DNA 1: CGCCTCGAATGTTCGCGAAAAGAGCGCCGG
# DNA 2: CCGGCGCTCTTTTCGCGAACATTCGAGGCG
# B3: TBS competitor (dsDNA)
# DNA 1: TCCTCATGGTCCTGCCGAGCAG
# DNA 2: CTGCTCGGCAGGACCATGAGGA
# Assays:
# Hsf = target: T1, Hsf (UniProt P22813 1-691); test: EMSA
# T1 sequence: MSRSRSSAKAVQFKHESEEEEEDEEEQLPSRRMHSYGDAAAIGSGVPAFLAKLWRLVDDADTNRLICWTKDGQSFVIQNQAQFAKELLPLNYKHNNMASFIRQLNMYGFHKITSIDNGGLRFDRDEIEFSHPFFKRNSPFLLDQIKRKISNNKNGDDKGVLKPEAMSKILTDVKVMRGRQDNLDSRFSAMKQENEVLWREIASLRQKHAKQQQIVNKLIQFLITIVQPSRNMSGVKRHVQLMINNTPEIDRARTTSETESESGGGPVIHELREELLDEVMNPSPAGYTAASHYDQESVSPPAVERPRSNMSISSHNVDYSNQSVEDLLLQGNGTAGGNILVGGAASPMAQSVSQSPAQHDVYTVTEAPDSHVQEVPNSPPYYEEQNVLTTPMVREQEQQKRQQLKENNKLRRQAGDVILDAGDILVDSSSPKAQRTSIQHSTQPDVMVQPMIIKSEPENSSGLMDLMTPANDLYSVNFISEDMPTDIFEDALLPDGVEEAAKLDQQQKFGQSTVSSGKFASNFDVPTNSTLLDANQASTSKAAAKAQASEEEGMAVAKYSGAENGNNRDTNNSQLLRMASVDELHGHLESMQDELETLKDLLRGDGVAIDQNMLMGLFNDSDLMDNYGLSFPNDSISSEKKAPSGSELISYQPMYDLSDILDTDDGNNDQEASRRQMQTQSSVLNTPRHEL
# Ttk69 = Ttk69 (UniProt P17789 1-643); test: EMSA
# GAF (GAGA factor) = target: T2, GAF (GAGA factor) (UniProt Q08605 1-582); test: EMSA
# T2 sequence: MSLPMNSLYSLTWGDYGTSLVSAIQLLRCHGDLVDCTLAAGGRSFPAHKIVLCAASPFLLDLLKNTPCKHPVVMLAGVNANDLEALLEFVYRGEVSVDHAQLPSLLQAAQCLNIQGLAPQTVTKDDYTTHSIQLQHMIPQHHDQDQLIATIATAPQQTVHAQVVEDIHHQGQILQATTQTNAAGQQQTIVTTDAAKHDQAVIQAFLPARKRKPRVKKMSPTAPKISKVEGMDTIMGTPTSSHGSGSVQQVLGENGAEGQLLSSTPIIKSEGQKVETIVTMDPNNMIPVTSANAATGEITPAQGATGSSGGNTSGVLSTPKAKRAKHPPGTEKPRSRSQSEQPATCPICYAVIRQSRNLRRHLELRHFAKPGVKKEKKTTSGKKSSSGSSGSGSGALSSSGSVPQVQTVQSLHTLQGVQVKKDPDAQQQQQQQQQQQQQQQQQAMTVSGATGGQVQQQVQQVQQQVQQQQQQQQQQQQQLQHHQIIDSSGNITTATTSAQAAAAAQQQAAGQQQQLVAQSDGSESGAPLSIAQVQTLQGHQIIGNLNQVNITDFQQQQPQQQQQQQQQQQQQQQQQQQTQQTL
# Hsf;Ttk69 = Hsf;Ttk69 (Drosophila melanogaster?;Drosophila …, UniProt P22813;P17789 1-691;1-643, |); test: EMSA
# [1] = target: T3, GAF (GAGA factor);Hsf-S378D (Drosophila melanogaster?;Drosophila …, UniProt Q08605;P22813 1-582;1-691, |S378D); test: EMSA
# T3 sequence 1: T2 sequence
# T3 sequence 2: T1 sequence with S378D
# GAF (GAGA factor);Ttk69 = GAF (GAGA factor);Ttk69 (Drosophila melanogaster?;Drosophila …, UniProt Q08605;P17789 1-582;1-643, |); test: EMSA
# [2] = target: T4, GAF (GAGA factor);Hsf;Ttk69 (Drosophila melanogaster?;Drosophila …, UniProt Q08605;P22813;P17789 1-582;1-691;1-643, ||); test: competition
# [3] = target: T4, GAF (GAGA factor);Hsf;Ttk69; test: competition; remark: listed apart in the source
binder,measurement,setting,value
B1,binding result,Hsf,no binding
same,binding result,Ttk69,no binding
same,binding result,GAF (GAGA factor),binds
same,binding result,Hsf;Ttk69,no binding
same,binding result,[1],binds
same,binding signal,GAF (GAGA factor);Ttk69,5 fold vs GAF alone
B2,binding result,[2],binds
B3,binding result,[3],no binding
